The values that follow come from US20080027001A1, “NOGO RECEPTOR FUNCTIONAL MOTIFS, PEPTIDE MIMETICS, AND MUTATED FUNCTIONAL MOTIFS RELATED THERETO, AND METHODS OF USING THE SAME” (priority 2006, published 2008).

In this assay the target is human p75 neurotrophin receptor (p75NTR) expressed in CHO-K1 cells (human) (UniProt P08138). The assay is described as follows: AP fusion protein on CHO-K1 cells expressing cell-surface human p75NTR, fluorescent AP substrate.
Sequence of human p75 neurotrophin receptor (p75NTR) expressed in CHO-K1 cells (human) (P08138 29-427): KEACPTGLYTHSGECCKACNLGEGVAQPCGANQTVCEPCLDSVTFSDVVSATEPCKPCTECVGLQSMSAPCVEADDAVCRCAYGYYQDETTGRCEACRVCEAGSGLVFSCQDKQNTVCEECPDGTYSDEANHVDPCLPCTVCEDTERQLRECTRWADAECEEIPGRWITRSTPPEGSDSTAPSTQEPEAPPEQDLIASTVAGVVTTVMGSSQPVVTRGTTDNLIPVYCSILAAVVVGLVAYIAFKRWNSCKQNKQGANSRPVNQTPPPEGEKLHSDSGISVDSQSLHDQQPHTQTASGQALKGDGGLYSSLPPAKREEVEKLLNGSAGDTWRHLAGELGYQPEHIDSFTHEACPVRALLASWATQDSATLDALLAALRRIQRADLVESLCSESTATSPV

For the substance NgR-AP, the fold bound against mock-transfected control cells turned out to be 5 fold.
